According to patent US20240336681A1 (LUDWIG MAXIMILIANS UNIVERSIT T M NCHEN, published 2024):

Legend:
[1] = target: T1, recombinant C-terminally His-tagged human CD47 (extracellular domain) (human, UniProt Q08722 19-141); assay: SPR, Biacore X100; construct captured by anti-human Fc on CM5 chip, human CD47 extracellular domain as analyte, 1:1 fit
T1 construct: also called recombinantly expressed human CD47 extracellular domain
Protocol: Surface Plasmon Resonance (SPR) was used in addition to analyse binding of the different protein constructs to recombinantly expressed CD47 and to determine their affinity. Association (Kₒₙ) and dissociation (Koff) rate constants were determined by SPR using a Biacore™ X-100 (Cytiva). Using the Human antibody capture kit an anti-human Fc antibody was immobilized on a CM5 sensor chip in a covalent manner using the Amine coupling Kit according to manufacturer's instructions. Humanized anti-hCD47 IgGs were injected as ligand to reach a surface coverage of approximately 100 RU-400 RU. Recombinantly expressed human CD47 extracellular domain was used as analyte and injected in increasing concentrations (e. g. from 3.9 to 1000 nM), with standard association time of 120 s and dissociation time of 600 s. Experiments were performed in multi-cycle kinetics runs, with regeneration between sample injection with the respective regeneration buffer (3M MgCl2 for the human antibody capture kit). All reagents were diluted in HBS-EP+ buffer (Cytiva). Data are fit to a simple 1:1 interaction model using the global data analysis option available within BiaEvaluation 2.0.1 software. The dissociation constant (KD) was used as a value for the affinity and was calculated from the ratio between Koff and Kₒₙ.

human CD47 on cells [2] = target: T2, human CD47 on cells (human, UniProt Q08722 19-323); assay: flow cytometry on CD47-positive Expi293 cells, 50 nM antibody; MFI of the antibody over MFI of the isotype control
T2 construct: also called CD47 on Molm-13, OVCAR-3, Suit-2 MSLN, HL-60 cells, red blood cells and CD47-transfected CHO cells
Protocol: (§1) Initially, binding of anti-hCD47 IgG4, anti-hCD47 IgG1 antibodies and Fab domains were measured on CD47-expressing cells by flow cytometry. Cells were stained with 50 nM of antibody followed by staining with a secondary fluorescently labelled anti-human IgG Fc or light-chain antibody, and analyzed by flow cytometry. Binding was measured by calculating the median fluorescence intensity (MFI) ratio, by dividing MFI of the antibody by the MFI of the isotype control.

[3] = target: recombinant C-terminally His-tagged human CD47 (extracellular domain) (human) (UniProt Q08722); assay: SPR, Biacore X100; construct captured by anti-human Fc on CM5 chip, human CD47 extracellular domain as analyte, 1:1 fit
human CD47 on cells [4] = target: T2, human CD47 on cells; assay: flow cytometry on CD47-positive Expi293 cells; MFI of the antibody over MFI of the isotype control
Protocol: as §1

Chain of recombinant C-terminally His-tagged human CD47 (extracellular domain) (human) (Q08722 19-141): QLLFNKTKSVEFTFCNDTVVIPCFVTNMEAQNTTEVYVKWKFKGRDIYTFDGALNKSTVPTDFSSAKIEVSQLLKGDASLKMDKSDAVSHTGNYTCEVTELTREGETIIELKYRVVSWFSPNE
T2 sequence (Q08722 19-323): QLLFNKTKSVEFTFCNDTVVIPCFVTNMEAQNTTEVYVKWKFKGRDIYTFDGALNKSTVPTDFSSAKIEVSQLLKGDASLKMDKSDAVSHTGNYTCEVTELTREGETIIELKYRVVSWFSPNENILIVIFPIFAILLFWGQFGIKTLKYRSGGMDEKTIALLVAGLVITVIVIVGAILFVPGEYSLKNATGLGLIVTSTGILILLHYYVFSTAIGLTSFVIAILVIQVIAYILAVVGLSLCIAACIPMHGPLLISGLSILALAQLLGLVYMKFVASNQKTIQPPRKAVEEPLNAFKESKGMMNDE
T1 sequence (Q08722 19-141): as the sequence (Q08722 19-141) above

Row | Binder | Kd [1] [nM] | MFI ratio (human CD47 on cells [2]) | Kd [3] [nM] | binding result (human CD47 on cells [4])
1 | 2D6-000 (antibody, V domains shown, Constant regions come from the vectors pFUSE-CHIg-hG4 and pFUSE2-CLIg-hk; also called anti-CD47 IgG4 (2D6-000)) VH: QVQLQQSGPELVKPGTSVTLSCKASGYTFPSYDINWMKQRPGQGLEWIGWIYPRDGSPKYNEKFKGKATLTVDTSSSTAYMELHSLTSEDSAVYFCARSVYYGTQFAYWGQGTLVTVSA VL: DIVMSQSPSSLAVSAGEKVTMSCKSSQSLLNSRTRKNYLAWYQQKPGQSPKLLIYWASTRDSGVPDRFTGSGSGTDFTLTISSVQAEDLAVYYCKQSFNLVTFGAGTKLELK | 56.1 |  |  | 
2 | 2D6-009 (antibody, IgG4, V domains shown) VH: QVQLVESGGGLVQPGGSLRLSCAASGYTFTSYDINWVRQAPGKGLEWVGWIYPRDGSPKYNEKFKGRFTISADTSKNTAYLQMNSLRAEDTAVYYCARSVYYGTQFAYWGQGTLVTVSS VL: DIVLTQSPSSLSASVGDRVTMSCKSSQSLLNSRTRKNYLAWYQQKPGKAPKLLIYWASTRDSGVPSRFSGSGSGTDFTLTISSLQPEDIATYYCKQSFNLVTFGGGTKLEIK |  | 1.58 |  | 
3 | 2D6-007 (antibody, IgG4, V domains shown, also called VH2/VL3) VH: QVELVQSGPEVKKPGSSVKVSCKASGYTFPSYDINWVRQRPGQGLEWMGWIYPRDGSPKYNEKFKGRVTITADTSTSTAYMELHSLRSEDTAVYYCARSVYYGTQFAYWGQGTLVTVSA VL: DIQMTQSPSSLSASVGDRVTITCKSSQSLLNSRTRKNYLAWYQQKPGKAPKLLIYWASTRDSGVPSRFSGSGSGTDFTLTISSLQPEDFATYYCKQSFNLVTFGQGTKVEIK |  | 3.92 |  | 
4 | 2D6-008 (antibody, IgG4, V domains shown, also called VH2/VL4) VH: QVELVQSGPEVKKPGSSVKVSCKASGYTFPSYDINWVRQRPGQGLEWMGWIYPRDGSPKYNEKFKGRVTITADTSTSTAYMELHSLRSEDTAVYYCARSVYYGTQFAYWGQGTLVTVSA VL: DIVMTQSPSSLSASVGDRVTITCKSSQSLLNSRTRKNYLAWYQQKPGKAPKLLIYWASTRDSGVPDRFSGSGSGTDFTLTISSLQPEDFATYYCKQSFNLVTFGQGTKVEIK |  | 3.29 |  | 
5 | 2D6-004 (antibody, IgG4, V domains shown, also called VH1/VL4) VH: QVELVQSGAEVKKPGSSVKVSCKASGGTFPSYDINWVRQAPGQGLEWMGWIYPRDGSPKYNEKFKGRVTITADESTSTAYMELSSLRSEDTAVYYCARSVYYGTQFAYWGQGTLVTVSS VL: DIVMTQSPSSLSASVGDRVTITCKSSQSLLNSRTRKNYLAWYQQKPGKAPKLLIYWASTRDSGVPDRFSGSGSGTDFTLTISSLQPEDFATYYCKQSFNLVTFGQGTKVEIK |  | 1.07 |  | no binding (tested: 50 nM (not on the sheet))
6 | 2D6-003 (antibody, IgG4, V domains shown, also called VH1/VL3) VH: QVELVQSGAEVKKPGSSVKVSCKASGGTFPSYDINWVRQAPGQGLEWMGWIYPRDGSPKYNEKFKGRVTITADESTSTAYMELSSLRSEDTAVYYCARSVYYGTQFAYWGQGTLVTVSS VL: DIQMTQSPSSLSASVGDRVTITCKSSQSLLNSRTRKNYLAWYQQKPGKAPKLLIYWASTRDSGVPSRFSGSGSGTDFTLTISSLQPEDFATYYCKQSFNLVTFGQGTKVEIK |  | 1.06 |  | no binding (tested: 50 nM (not on the sheet))
7 | 2D6-001 (antibody, IgG4, V domains shown, also called VH1/VL1) VH: QVELVQSGAEVKKPGSSVKVSCKASGGTFPSYDINWVRQAPGQGLEWMGWIYPRDGSPKYNEKFKGRVTITADESTSTAYMELSSLRSEDTAVYYCARSVYYGTQFAYWGQGTLVTVSS VL: DIVLTQSPSSLSASVGDRVTMSCKSSQSLLNSRTRKNYLAWYQQKPGKAPKLLIYWASTRDSGVPSRFSGSGSGTDFTLTISSLQPEDIATYYCKQSFNLVTFGGGTKLEIK |  | 1.15 |  | no binding (tested: 50 nM (not on the sheet))
8 | 2D6-010 (antibody, IgG4, V domains shown, also called VH3/VL2) VH: QVQLVESGGGLVQPGGSLRLSCAASGYTFTSYDINWVRQAPGKGLEWVGWIYPRDGSPKYNEKFKGRFTISADTSKNTAYLQMNSLRAEDTAVYYCARSVYYGTQFAYWGQGTLVTVSS VL: DIVMTQSPSSLAVSLGERVTMSCKSSQSLLNSRTRKNYLAWYQQKPGQPPKLLIYWASTRDSGVPDRFSGSGSGTDFTLTISSLQAEDVAVYYCKQSFNLVTFGGGTKLEIK |  | 1.08 |  | no binding (tested: 50 nM (not on the sheet))
9 | 2D6-012 (antibody, IgG4, V domains shown, also called VH3/VL4) VH: QVQLVESGGGLVQPGGSLRLSCAASGYTFTSYDINWVRQAPGKGLEWVGWIYPRDGSPKYNEKFKGRFTISADTSKNTAYLQMNSLRAEDTAVYYCARSVYYGTQFAYWGQGTLVTVSS VL: DIVMTQSPSSLSASVGDRVTITCKSSQSLLNSRTRKNYLAWYQQKPGKAPKLLIYWASTRDSGVPDRFSGSGSGTDFTLTISSLQPEDFATYYCKQSFNLVTFGQGTKVEIK |  | 4.1 |  | 
10 | 2D6-011 (antibody, IgG4, V domains shown, also called VH3/VL3) VH: QVQLVESGGGLVQPGGSLRLSCAASGYTFTSYDINWVRQAPGKGLEWVGWIYPRDGSPKYNEKFKGRFTISADTSKNTAYLQMNSLRAEDTAVYYCARSVYYGTQFAYWGQGTLVTVSS VL: DIQMTQSPSSLSASVGDRVTITCKSSQSLLNSRTRKNYLAWYQQKPGKAPKLLIYWASTRDSGVPSRFSGSGSGTDFTLTISSLQPEDFATYYCKQSFNLVTFGQGTKVEIK |  | 4.51 |  | 
11 | 2D6-002 (antibody, IgG4, V domains shown, also called VH1/VL2) VH: QVELVQSGAEVKKPGSSVKVSCKASGGTFPSYDINWVRQAPGQGLEWMGWIYPRDGSPKYNEKFKGRVTITADESTSTAYMELSSLRSEDTAVYYCARSVYYGTQFAYWGQGTLVTVSS VL: DIVMTQSPSSLAVSLGERVTMSCKSSQSLLNSRTRKNYLAWYQQKPGQPPKLLIYWASTRDSGVPDRFSGSGSGTDFTLTISSLQAEDVAVYYCKQSFNLVTFGGGTKLEIK |  | 1.06 |  | no binding (tested: 50 nM (not on the sheet))
12 | 2D6-006 (antibody, IgG4, V domains shown, also called VH2/VL2) VH: QVELVQSGPEVKKPGSSVKVSCKASGYTFPSYDINWVRQRPGQGLEWMGWIYPRDGSPKYNEKFKGRVTITADTSTSTAYMELHSLRSEDTAVYYCARSVYYGTQFAYWGQGTLVTVSA VL: DIVMTQSPSSLAVSLGERVTMSCKSSQSLLNSRTRKNYLAWYQQKPGQPPKLLIYWASTRDSGVPDRFSGSGSGTDFTLTISSLQAEDVAVYYCKQSFNLVTFGGGTKLEIK |  | 3.12 |  | 

The next lines start with results.

Row | Kd [1] [nM] | MFI ratio (human CD47 on cells [2]) | Kd [3] [nM] | Binder | binding result (human CD47 on cells [4])
13 |  |  | 176 | 2D6-037 (bispecific antibody, part only; not given: linkers and anti-TAA IgG1 chains, V domains shown, not shown: another chain or arm of the molecule; large carriers; small tags and cut ends) VH: QVELVQSGPEVKKPGSSVKVSCKASGYTFPSYDINWVRQRPGQGLEWMGWIYPRFGSPKYNEKFKGRVTITADTSTSTAYMELHSLRSEDTAVYYCARSVYYGTQFAYWGQGTLVTVSA VL: DIVLTQSPSSLAVSLGERVTMSCKSSQSLLNSRTRKNYLAWYQQKPGQPPKLLIYWASTRDSGVPDRFSGSGSGTDFTLTISSLQAEDVAVYYCKQSFNLVTFGGGTKLEIK | 
14 |  | 1.03 |  | 2D6-014 (antibody, IgG4, V domains shown, also called VH4/VL2) VH: QVQLVESGGGLVQPGGSLRLSCAASGYTFPSYDINWVRQAPGKGLEWVGWIYPRDGSPKYNEKFKGRFTISADTSKNTAYLQMNSLRAEDTAVYYCARSVYYGTQFAYWGQGTLVTVSS VL: DIVMTQSPSSLAVSLGERVTMSCKSSQSLLNSRTRKNYLAWYQQKPGQPPKLLIYWASTRDSGVPDRFSGSGSGTDFTLTISSLQAEDVAVYYCKQSFNLVTFGGGTKLEIK | no binding (tested: 50 nM (not on the sheet))
15 |  |  | 1110 | 2D6-036 (bispecific antibody, part only; not given: linkers and anti-TAA IgG1 chains, V domains shown, not shown: another chain or arm of the molecule; large carriers; small tags and cut ends) VH: QVELVQSGPEVKKPGSSVKVSCKASGYTFPSYDINWVRQRPGQGLEWMGWIIPRDGSPKYNEKFKGRVTITADTSTSTAYMELHSLRSEDTAVYYCARSVYYGTQFAYWGQGTLVTVSA VL: DIVLTQSPSSLAVSLGERVTMSCKSSQSLLNSRTRKNYLAWYQQKPGQPPKLLIYWASTRDSGVPDRFSGSGSGTDFTLTISSLQAEDVAVYYCKQSFNLVTFGGGTKLEIK | 
16 |  | 1.05 |  | 2D6-013 (antibody, IgG4, V domains shown, also called VH4/VL1) VH: QVQLVESGGGLVQPGGSLRLSCAASGYTFPSYDINWVRQAPGKGLEWVGWIYPRDGSPKYNEKFKGRFTISADTSKNTAYLQMNSLRAEDTAVYYCARSVYYGTQFAYWGQGTLVTVSS VL: DIVLTQSPSSLSASVGDRVTMSCKSSQSLLNSRTRKNYLAWYQQKPGKAPKLLIYWASTRDSGVPSRFSGSGSGTDFTLTISSLQPEDIATYYCKQSFNLVTFGGGTKLEIK | no binding (tested: 50 nM (not on the sheet))
17 |  |  | 406 | 2D6-046 (bispecific antibody, part only; not given: linkers and anti-TAA IgG1 chains, V domains shown, not shown: another chain or arm of the molecule; large carriers; small tags and cut ends) VH: QVELVQSGPEVKKPGSSVKVSCKASGYTFPSYDINWVRQRPGQGLEWMGWIYPRDGSPKYNEKFKGRVTITADTSTSTAYMELHSLRSEDTAVYYCARSVYYGTQFAYWGQGTLVTVSA VL: DIVLTQSPSSLAVSLGERVTMSCKSSQSLLNSRTRKNYLAWYQQKPGQPPKLLIYWASTRDSGVPDRFSGSGSGTDFTLTISSLQAEDVAVYYCQQSFNLVTFGGGTKLEIK | 
